± gives the uncertainty stated by the source.
Test: protein stability index of a GFP-peptide fusion (yeast GPS) (PSI 1-4); higher = more stable; sorted into four equal gates, so the index is relative within each strain
Summary of the method: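 Peptides tiling yeast proteins in 17-residue segments were fused downstream of GFP, with Cherry expressed from the same plasmid. As a pooled library in yeast, mid-log cultures grown in leucine-free medium were sorted into four equal gates by GFP/Cherry fluorescence ratio. Gate plasmids were PCR-amplified and Illumina-sequenced, and barcodes linked reads to strains. Each peptide received a protein stability index equal to the sum of each gate's read frequency times its gate number.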

Sequence | protein stability index (doa10∆) | protein stability index (pdr5∆) | protein stability index (san1∆) | protein stability index (ubr1∆)
TTARAKARAKKTKKEKG [RPN2] | 3.31 ± 0.15 | 3.63 ± 0.2 | 3.16 ± 0.079 | 3.21 ± 0.089
TTDDKSMDTKKKHKQKK [BRN1] | 3.21 ± 0.092 | 3.32 ± 0.09 | 3.51 ± 0.068 | 3.27 ± 0.054
TTDKLRSMVRKWQTLIE [RPS1A] | 2.72 ± 0.17 | 2.46 ± 0.15 | – | –
TTGSIFEKDLMAYFDEN [BRN1] | 2.83 ± 0.055 | 3.15 ± 0.055 | 3.17 ± 0.043 | 3.13 ± 0.033
TTLKLSPSPILLTSAGC [NUT1] | 1.47 ± 0.043 | 1.42 ± 0.039 | 1.45 ± 0.09 | 1.51 ± 0.036
TTPEINNFIVERVQSDE [SRP68] | 3.18 ± 0.15 | 3.38 ± 0.14 | 3.37 ± 0.097 | 2.88 ± 0.13
TTSEATANDRQINNVHL [RPN4] | 2.97 ± 0.11 | 2.91 ± 0.079 | 2.49 ± 0.087 | 2.7 ± 0.097
TTSERVSNENKKNIDYQ [RRI1] | 2.98 ± 0.083 | 3.03 ± 0.09 | 3.13 ± 0.085 | 3.05 ± 0.18
TTSLNPIQSKVFHAAFE [BRR2] | 2.65 ± 0.062 | 2.56 ± 0.071 | 2.08 ± 0.11 | 2.85 ± 0.052
TTTRIQSQQAQPSDVMF [MED2] | 2.91 ± 0.061 | 2.79 ± 0.057 | 3 ± 0.063 | 2.87 ± 0.043
TTTVLKRYANHTQDIIG [RET1] | 2.04 ± 0.083 | 2.75 ± 0.093 | 3.02 ± 0.051 | 2.9 ± 0.055
TTYSVDDYYKEIIGGGS [ISW2] | 3.32 ± 0.1 | 3.02 ± 0.13 | 3.19 ± 0.088 | 3.33 ± 0.13
TVDLALFGSPPFILEYD [YMR129W/POM152] | 2.36 ± 0.044 | 2.49 ± 0.047 | 1.9 ± 0.087 | 2.7 ± 0.032
TVELQVGLKNYDPQRDK [RPL1A] | 3.05 ± 0.091 | 3.12 ± 0.082 | 3.12 ± 0.094 | 3.18 ± 0.076
TVPELEIPTQIYRTTRQ [ARP9] | 2.39 ± 0.076 | 2.8 ± 0.066 | 2.35 ± 0.08 | 2.83 ± 0.067
TVTIASSLNLEDTPAND [RPB8] | 2.83 ± 0.066 | 2.81 ± 0.054 | 2.65 ± 0.06 | 2.88 ± 0.067
TYGVPGSENKRGSLDSE [NUT1] | 3.31 ± 0.095 | 3.25 ± 0.11 | 3.23 ± 0.15 | 2.99 ± 0.074
TYLLKNDLVKARDLLDD [RPN9] | 2.7 ± 0.11 | 2.78 ± 0.11 | – | 2.52 ± 0.18
TYNEDIPVEILVRRLSD [PRE9] | 3.06 ± 0.079 | 2.84 ± 0.077 | 3.14 ± 0.064 | 2.85 ± 0.059
TYNMIDAAAEKRNGDEV [ARP7] | 2.85 ± 0.066 | 3.03 ± 0.07 | 3.13 ± 0.055 | 3.18 ± 0.044
VAARAEILRIHSRKMNL [RPT6] | 2.59 ± 0.056 | 2.53 ± 0.054 | 2.5 ± 0.081 | 2.64 ± 0.068
VAIACDLRLGSQSLGVS [PUP3] | – | 2.75 ± 0.26 | 2.85 ± 0.17 | –
VARIYASFNDTFVHVTD [RPS14A] | 1.96 ± 0.06 | 1.73 ± 0.04 | 2.12 ± 0.07 | 2.2 ± 0.055
VASQSPHATATEKEPVP [SNF6] | 3.23 ± 0.11 | 3.06 ± 0.061 | 2.88 ± 0.15 | 3.35 ± 0.077
VASRHPSESEHPIRVLM [YDL116W/NUP84] | – | 3 ± 0.25 | 2.9 ± 0.23 | –
VCFNNLVDENTDYLYRR [YCS4] | 2.61 ± 0.067 | 2.56 ± 0.05 | 2.48 ± 0.081 | 2.08 ± 0.037
VDIEYTRGRNIIMHKDV [RET1] | 2.44 ± 0.11 | 2.55 ± 0.13 | 2.92 ± 0.064 | 2.84 ± 0.1

Sequence | protein stability index (doa10∆) | protein stability index (pdr5∆) | protein stability index (san1∆) | protein stability index (ubr1∆)
VDPVYKDVAKPTGPKTA [FAS2] | 2.99 ± 0.096 | 3.05 ± 0.1 | 2.52 ± 0.08 | 2.34 ± 0.069
VDREAMLKPNIIFQQLL [YCG1] | 2.98 ± 0.24 | 2.78 ± 0.19 | – | –
VDRSKYNIELPLPPRID [RPT1] | 3.33 ± 0.2 | 3.58 ± 0.26 | 3.15 ± 0.094 | 3.14 ± 0.17
VDVAKDINVKDLKASQR [RPT6] | 3.35 ± 0.14 | 3.13 ± 0.11 | 2.63 ± 0.18 | 3.22 ± 0.098
VDVELITSINVENDTFI [FAS2] | 3.4 ± 0.1 | 3.37 ± 0.069 | 3.09 ± 0.086 | 3.32 ± 0.072
VDVFAMPQSGTGVSVEA [RPN11] | 3.1 ± 0.1 | 3.41 ± 0.13 | 3.41 ± 0.076 | 3.05 ± 0.095
VEAQSHRLTLEDPVTVE [PRE6] | 3.23 ± 0.15 | 3.88 ± 0.25 | – | –
VEDVSQNAADLQQICRV [RPL9A] | 2.96 ± 0.096 | 3.42 ± 0.047 | 2.76 ± 0.093 | 3.03 ± 0.051
VEEYTWSSLLNEGLVEY [RPB2] | – | 3.2 ± 0.18 | 3.11 ± 0.089 | –
VEGPKFTIDAKPPISDS [YLR335W/NUP2] | 3.31 ± 0.048 | 3.47 ± 0.058 | 3.29 ± 0.048 | 3.36 ± 0.046
VELLDSNDRVNPLIELT [ITC1] | 3.58 ± 0.11 | 2.5 ± 0.11 | 3.28 ± 0.075 | 3.02 ± 0.069
VEVKDASLVDYVQVRQP [RPS5] | 2.9 ± 0.3 | 3.41 ± 0.17 | – | 1.18 ± 0.067
VFHAAFEGDSNMLICAP [BRR2] | 2.25 ± 0.048 | 2.41 ± 0.042 | 2.33 ± 0.045 | 2.615 ± 0.026
VFLSNLVETCLNDLVES [BRR2] | 1.41 ± 0.05 | 1.98 ± 0.04 | 1.57 ± 0.11 | 1.89 ± 0.039
VFQAKMMDMLKQTGRDQ [RPN11] | 2.56 ± 0.061 | 2.58 ± 0.07 | 2.52 ± 0.077 | 2.96 ± 0.062
VGCKNLERLTLVFCKHI [GRR1] | 1.52 ± 0.062 | 1.91 ± 0.077 | 1.25 ± 0.11 | 1.63 ± 0.084
VGEMKLLKKKDDPSKVR [YLR335W/NUP2] | 3.29 ± 0.08 | 3.32 ± 0.15 | 2.98 ± 0.091 | 2.74 ± 0.16
VGGHNVTIREQINIMPS [SIR3] | 2.91 ± 0.069 | 2.8 ± 0.066 | 2.71 ± 0.071 | 2.94 ± 0.067
VGHLSILPQQSKLKLKN [ECM29] | 1.91 ± 0.16 | 2.31 ± 0.1 | 1.88 ± 0.13 | 2.5 ± 0.15
VGIDTHTATDIYQTLIA [SNF2] | 2.12 ± 0.05 | 2.03 ± 0.048 | 1.85 ± 0.05 | 1.72 ± 0.028
VGKFLGYVSSLVEPSKV [FAS1] | 1.71 ± 0.064 | 2.14 ± 0.072 | 1.69 ± 0.12 | 1.89 ± 0.052
VGKRVPIVEDRRVKQLD [SIR4] | – | – | – | 3.35 ± 0.26
VGKTVKQLIMESQEKYM [NSL1] | 3.17 ± 0.097 | 3.18 ± 0.073 | 2.8 ± 0.067 | 3.34 ± 0.055
VGQAGRPKKITGWITQS [RPN1] | 1.99 ± 0.059 | 2.27 ± 0.075 | 2.21 ± 0.12 | 2 ± 0.044
VGRRAANLRVLNSYWVN [RPL15A] | 1.97 ± 0.062 | 1.71 ± 0.072 | 1.91 ± 0.11 | 1.69 ± 0.07
VGVENNGQYAAFVKDMQ [RPC37] | 3.21 ± 0.12 | 2.79 ± 0.15 | 3.19 ± 0.092 | 3.41 ± 0.1
VGVNKDSYLILDTLPSE [RPT5] | 3.15 ± 0.069 | 3.18 ± 0.08 | 3.19 ± 0.078 | 3.14 ± 0.032

Sequence | protein stability index (doa10∆) | protein stability index (pdr5∆) | protein stability index (san1∆) | protein stability index (ubr1∆)
VGVVFGSGAANENPYNN [COR1] | 3.24 ± 0.15 | 3.23 ± 0.088 | 3.21 ± 0.087 | 3.07 ± 0.12
VHSSSPSTSSNMDVGNP [GAL11] | 2.89 ± 0.071 | 2.75 ± 0.066 | 2.69 ± 0.075 | 3.14 ± 0.054
VIKRLEASTVPWGDYLQ [BRR2] | 1.63 ± 0.15 | 1.24 ± 0.11 | 1.54 ± 0.11 | 1.35 ± 0.11
VITLLNNSSITLRCSVV [YCS4] | 2.04 ± 0.06 | 1.2 ± 0.062 | 1.21 ± 0.12 | 1.16 ± 0.051
VIVELLPQSEWKAPSSI [DIS3] | 2.79 ± 0.071 | 2.57 ± 0.062 | 2.02 ± 0.062 | 2.1 ± 0.048
VIWELDDSANIVNVNFM [DIS3] | 2.96 ± 0.049 | 2.85 ± 0.057 | 3.21 ± 0.042 | 2.99 ± 0.045
VKLLKTTVPIVSKKRQK [POP3] | 3.2 ± 0.1 | 2.95 ± 0.069 | 2.87 ± 0.083 | 2.74 ± 0.07
VKLPRAFIDERASDLRM [RRP43] | – | 1.68 ± 0.26 | – | 1.69 ± 0.16
VKMLRDNPGYKASKEIK [SIR3] | 3.08 ± 0.17 | 3.38 ± 0.19 | – | 3.15 ± 0.11
VKPLESSAKRSKNTAVS [SRP72] | 2.7 ± 0.073 | 2.92 ± 0.11 | 2.21 ± 0.096 | 2.63 ± 0.05
VKQEDMPFNDQGIVPDI [RET1] | 2.86 ± 0.084 | 3.06 ± 0.059 | 2.91 ± 0.064 | 3.17 ± 0.043
VKSLLSEEKIRDYSKEI [SIR4] | 3.14 ± 0.3 | 2.48 ± 0.14 | 2.46 ± 0.14 | –
VKTPKKTKYILQRPTAT [CSN12] | 2.89 ± 0.069 | 3.03 ± 0.076 | 2.6 ± 0.079 | 2.43 ± 0.21
VKVLAATNRVDVLDPAL [RPT5] | 3.08 ± 0.099 | 2.84 ± 0.1 | 3.02 ± 0.075 | 2.89 ± 0.071
VLAHRIGLVPLKVDPDM [RPC40] | 2.94 ± 0.27 | – | – | –
VLAKRMANLSQIYTQRA [SCL1] | 2.52 ± 0.12 | 3 ± 0.27 | 2.34 ± 0.12 | 2.69 ± 0.091
VLARISPELSLQRHLSL [RRP43] | 2.47 ± 0.054 | 2.04 ± 0.072 | 2.02 ± 0.093 | 2.47 ± 0.05
VLESIVARTFWASKYGQ [BRR2] | 2.74 ± 0.063 | 2.37 ± 0.062 | 2.47 ± 0.096 | 2.61 ± 0.067
VLHVSAKGKSGVQTAYI [RRP40] | 2.48 ± 0.23 | – | – | 2.91 ± 0.24
VLIANDVDPIELVVFLP [RPL8A] | 2.42 ± 0.24 | 2.85 ± 0.077 | 3.13 ± 0.087 | 3 ± 0.058
VLIAQERSAGNIVQVFK [RPB2] | 2.85 ± 0.13 | 3.39 ± 0.23 | 2.97 ± 0.087 | 3.11 ± 0.064
VLIKMVKMLRDNPGYKA [SIR3] | 3.34 ± 0.077 | 3.47 ± 0.068 | 3.47 ± 0.039 | 3.33 ± 0.036
VLITDHIEKLENEFVVL [CDC53] | 3.05 ± 0.061 | 2.61 ± 0.055 | 2.1 ± 0.087 | 2.58 ± 0.054
VLITSYEMVIREKNALK [ISW2] | 2.33 ± 0.043 | 2.53 ± 0.053 | 2.37 ± 0.045 | 2.78 ± 0.043
VLKFLTDLEKKHLWDQK [RPC17] | 3.14 ± 0.24 | 3.41 ± 0.16 | 3.18 ± 0.14 | 3.47 ± 0.14

— the supplement of paper PMC9732359
